Assay results published in the DeepSol protein solubility set.

assay: soluble on expression in E. coli; label from the status in PepcDB or PDB records

**Q.** With “MKGIARLVTSLSRIGGRKVVSGTSTVTSSSSSSLLLSRRSLFISATNLLNSRTKDSALPSLNSSLLAQKWNFLGGQRRTMFIQTQSTPNPSSLMFYPGKPVMEVGSADFPNVRSALGSPLAKSIYSIDGVVRVFFGSDFVTVTKSDDVSWDILKPEIFAAVMDFYSSGQPLFLDSQAAAAKDTAISEDDSETVAMIKELLETRIRPAVQDDGGDIEYCGFDPESGIVKLRMQGACSGCPSSSVTLKSGIENMLMHYVSEVKGVEQEFDGEDEEGTLSGEMRVE” as the sequence, how does the “soluble on expression in E. coli” value read?
**A.** Its value is “not soluble”.

**Q.** Which “soluble on expression in E. coli” value does the source give for “MAAAAVSSAKRSLRGELKQRLRAMSAEERLRQSRVLSQKVIAHSEYQKSKRISIFLSMQDEIETEEIIKDIFQRGKICFIPRYRFQSNHMDMVRIESPEEISLLPKTSWNIPQPGEGDVREEALSTGGLDLIFMPGLGFDKHGNRLGRGKGYYDAYLKRCLQHQEVKPYTLALAFKEQICLQVPVNENDMKVDEVLYEDSSTA” here?
**A.** Its value is “soluble”.

**Q.** Which “soluble on expression in E. coli” value does the source give for “MSKIKIAIIGNGMVGHRFIEDLLDKADKDQFDITVFCEEPRIAYDRVHLSSYFSHHTAEELSLVREGFYEKQGVKVLVGERAITINRAEKVIHSNSGRSLYYDKLVMATGSYPWIPPIKGSEGQDCFVYRTIEDLNAIEACTRRSKRGAVIGGGLLGLEAAGALKSLGVETHVIEFAPVLMAEQLDPMGGDQLRQKIERMGVRVHTGKNTQEIVHSGQNSRKTMLFADGTQLEVDFIVFSTGIRPQDKLANQCGLATARRGGIAINDYCQTSDPDVYAIGECASWQERTFGLVAPGYKMAQVAADHLLGRENAFLGADMSAKLKLLGVDVGGIGDAHGRTEGARSYVYLDESKEIYKRLVVSADNKTLLGAVLVGDTTDYGNLLQLALNNITLPENPDSLILPAHAGNKPTIGVDSLPDSAQICSCFDVTKGDIIRAIGQGCQTVAALKSATKAGTGCGGCIPLVTQVLNAELSKQGIEVNNHLCEHFAYSRQELYHLIRVEGIKTFTELREKYGKGYGCEVCKPTVGSLLASCWNEYVLEPQHTPLQDTNDNFLGNIQKDGTYSIIPRSPGGEITPDGLLVVGQIAKEYNLYTKLTGSQRIGMFGAQKDDLPAIWARLIDAGFETGHAYAKALRMAKTCVGSTWCRFGVGDSVGFGVALEHRYKGIRAPHKIKFGISGCTRECAEAQGKDVGIIATENGWNLYVCGNGGMKPRHADLLAADLDEETLMRYLDRFMMFYIRTADKLQRTSVWLESLEGGIRYLQLVILEDKLGINDQLEAEIARLRDKVACEWKATVENPAAQVRFAHFINSSLRDPNVQVVREREQHRPARPDERIPVRVLELEDNA” here?
**A.** The value was “not soluble”.

**Q.** Which “soluble on expression in E. coli” value does the source give for “MLSSLRRVVPSLPRGSRSLTSQQIFDREKKFGCHNYKPLPVALSKGEGCFVWDVEGKKYFDFLAAYSAVNQGHCHPKLLKVVQEQASTLTLTSRAFYNNVLGEYEEYVTKLFKYDKVLPMNTGVEACESAVKLARRWAYDVKGVKDNEAVVVFAENNFWGRSIAAISASTDPDSFARFGPFVPGFKTVPYNNLKAVEDAIKDKNVAAFMVEPIQGEAGVVLPDPGYLKGVSDLCKKYNVLFITDEVQSGLGRSGKLLAHYHDNVRPDIVVLGKALSGGFYPVSAVLCDDNVMMNIKPGEHGSTYGGNPLACKVAIAALEILQEEKLVENSAVMGDLLMSKLKTLPKDIVSTVRGKGLFCAIVINKKYDAWKVCLKLKENGLLAKNTHGDIIRFAPPLCINKEQVEQAADIIIKTVTDFAKQN” here?
**A.** The value was “not soluble”.

**Q.** With “SFHYQALPMRVSFEVGAVTKIGEELDRLGLSRALVLCTPEQKHLADLVMDHLGDRGAGIFDQARMHVPVETADRARDRARKLGADSCVVIGGGSSIGLGKAIALEHGLPIIAIPTTYAGSEMTPIWGLTRDGRKQTGRDAKVLPQSVIYDPQLTAT” as the sequence, how does the “soluble on expression in E. coli” value read?
**A.** The value was “not soluble”.

**Q.** For “MLPSTMFLVHLPLSTNRLHCLRNTSLESCLCSFVHLNHPLHISDPVILISLHEAVRFSFAFSFPRGTLSIAYCLMSSVSTSSEAIMSTELLANYCHSSLHVCICISSFPNETGNHDSFPGAVVSISDQPTDQCKLAAKELPLRNLLECRFFDCMGEEDLINLGVIGTER”, which “soluble on expression in E. coli” value is on record?
**A.** The value was “soluble”.

**Q.** Which “soluble on expression in E. coli” value does the source give for “MDGFQLGNNSPKEITVFCDESRPEALRAASITQRYLCIGSIWVDRERVREVNEEIRALQIKYSKMGEVKWGKVSPSSIQFNCELIDLFFDERFNLQFRAIVVDNQKVDLSYHNNDQELGFYKFYYQMLKHKLINGCSYRIYCDLKTNKMRGRASTLEHYLQTYCLGSVEMVQLLPSNDLPLMQLTDLLLGAVSTKFNFRIPKSPAKNEVISTIERHIGHQIQPTRKNEQKFNVFCIEPGMGR” here?
**A.** The value was “not soluble”.

**Q.** For “MINSINIQIRETNTDDFDSIMTVEKQAFGYDKEAQLVADLLADKTAEPMVSLLAFYKGEAVGHILFTRAYFDGQGALQMMHILAPLAVKPEYQRQGIGGMLIRAGIERLQEKGSCLVFVLGHKEYYPEYGFIPDAARLGYPAPYPILEQFSDYWMVQAISPKGFDVDKGKIRCSDELNKPEHWRDDESDR”, which “soluble on expression in E. coli” value is on record?
**A.** The value was “not soluble”.

**Q.** Which “soluble on expression in E. coli” value does the source give for “MSLQSLWIYPEDTEVLGAACKSLLKALKPRYQKIALFSPISGGCEGFGECESLSSLEVHSAIDKQKALELVSTAQEELLFETILKRYDELQSTHDFVINLGYAPKFFLNALLDLNTILAKHLNAPVVAVAQTSLDHLKAMHSHILKKEAPFAIGLFVGETLEKPHFLSASLCKQQCELEASAIENLLQTKSEIITPLAFQRSLEKKAKKQIKKVVLPESEDERILKAAHRLNLMGAVGLILLGDKEAINSQAKNLNLNLENVEIINPNTSHYREEFAKSLYELRKSKGLSEQEAERLALDKTYFATMLVHLGYAHAMVSGVNHTTAETIRPALQIIKTKPGVSLVSSVFLMCLDTQVFVFGDCAIIPNPSPKELAEIATTSAQTAKQFNIAPKVALLSYATGNSAQGEMIDKINEALTIVQKLDPQLEIDGPLQFDASIDKGVAKKKMPNSQVAGQASVFIFPDLNAGNIAYKAVQRSAKAVAIGPILQGLNKPINDLSRGALVEDIVNTVLISAIQAQDYEGHHHHHH” here?
**A.** The value was “not soluble”.

**Q.** With “GPLGSGGGTIAMLNEISSDTLEQLYSLAFNQYQSGKYEDAHKVFQALCVLDHYDSRFFLGLGACRQAMGQYDLAIHSYEEGAVMDIKEPRFPFHAAECLLQKGELAEAESGLFLAQELIANKPEFKELSTRVSSMLEAIKLKKEMKHE” as the sequence, how does the “soluble on expression in E. coli” value read?
**A.** The value was “soluble”.

**Q.** For “MSTDLRALLEQARQQGDYTALLEQIPYAKLIGIECTQLGDELLFRLPANKDNIGNPLLPALHGGVIAGFMELAAALHLLILTGSPGVPKIIDFSLDYLRAGQFRDTFARCQVCRQGRRVANVAITAWQSTAEESIATARAHFKIEESTGPLEHHHHHH”, which “soluble on expression in E. coli” value is on record?
**A.** Its value is “soluble”.

**Q.** For “MSLEMEKYLSVTTLTKYLKMKFDKDPYLERVYLTGQVSNFRKRPTHQYFSLKDDHAVIQATIWSGIYQKLGFDLEEGMKINVIGRVQVYEPSGSYSIIIEKVEPDGVGALAIQFEQLKKKLTEEGLFQERFKQALPQFSKRIGVVTSRSGAVIRDIITTVSRRFPGVDILLYPTKVQGEGAAEEIARNIARANQRDDLDLLIIGRGGGSIEDLWAFNEEIVVRAIFESRLPVISSVGHETDVTLADFVADRRAATPTAAAELATPVTKLDVLAHLQNQEKRMVTAVRNVLSKKQEALKKCSQSVIFRQPERLYDGYLQRLDQLQLRLKQSLRTRISDNKQLVQARTHQLVQLSPVTKIQRYQDRLGQLDKLLGSQMALVYDAKVAEAKRLSEALLMLDTSRIVARGYAIVKKEESVVDSVESLKKKDQVTLLMRDGQVELEVKDVKTKEIEGHHHHHH”, which “soluble on expression in E. coli” value is on record?
**A.** The value was “not soluble”.

**Q.** With “SLKRIDWNIQYLSLPPVIKHCKKCGKKTEFICSGMFRINAQRKYLDVWLIYKCSNCNSTWNMTIYTRVKPKSIEPKLLEAFHNNDKELAERYAVNLELIRKNGVELGYTKYKIIGEDINFRIPVELHIKSTYPSQLKVAALIREKLNLSQSSFESLITKGLIRGDTEINLKKCRLRTEVIVIIDSLDWSEVAFALAL” as the sequence, how does the “soluble on expression in E. coli” value read?
**A.** Its value is “soluble”.

**Q.** For “PSIKSAIQGKPVNPLNVSPTRLPILTADEKEFDVKIIVTGDRNQLADLEYVDEDFSTGLTMYTEVEEDIHLSASNLELYVGLVNWICSEYGFPSLDDGAFQRLLLAGMRLTEDQH”, which “soluble on expression in E. coli” value is on record?
**A.** Its value is “not soluble”.

**Q.** With “MSFERSRHDLKLKTSDGMHCVMTNKEIVCLASQFFRQHLKDTTTEFTVGRADSVESIDICLTYMITGIYKKPAQFSPKLASEIFALANQWKVLEPKVLKNSIEKHCCEELQKNYEDIMYVCNMLIIAEDAHFTNVQSCCIATLVFYHVRDFIRIIVNGVESPTEECFSQRREFLKPSLTMQAKRAFAASNEAKCFIKFLPAIGED” as the sequence, how does the “soluble on expression in E. coli” value read?
**A.** The value was “not soluble”.

**Q.** With “MGSDKIHHHHHHVLETFETVAKAVADPNRVRILKLLESGELCVCQITAVLDLAAATVSKHLSLLKAAGLLQQRREGKWAYYRLADRALNPYAPAFLGLIGATLADDPTLTEDARILSKVNALPLQVLCDQGRAALDLTRPTSPAPSCCGTPMMTETSFNVLFLCTGNSARSILAESILNREGAGKFRAYSAGSHPKGQIDPTVLALLKKTNHPTETLRSKSWDEFAAPGAPTLDFVFTVCDNAAGEVCPIWPGQPMTAHWGVPDPAGFVGSEAEKAAFCGEVMRLLRTRISIFAALPIASLDRLSLQRRLKEIGKVALESRETRESGVL” as the sequence, how does the “soluble on expression in E. coli” value read?
**A.** Its value is “not soluble”.

**Q.** With “SASTIYTCKECGSDLNLNPNDLFPPDFYFEAGNKGTLSFAAVDAEKFRFEKEDKIMPFFETLNYWGIQRKRTKIKCTSCNHLIGYIYDDGPPLTGGIGQYGFGPSQVIPRAPRYRFKTKARQDGWQYGGLTAFWN” as the sequence, how does the “soluble on expression in E. coli” value read?
**A.** Its value is “soluble”.

**Q.** Which “soluble on expression in E. coli” value does the source give for “MEEGYRLKFIFIGNQNNNIKNKNFSNPHNILFDSKKDIILTQDLCEEFLNLNINKQDHAIELLKKELSPLLFEDSLSYLKEEFINEKLEFNISNLASRYTANNDVDTINNKIIEGISITNNFKYTNISYLKELKGYIENDILDKMKSKYAKNIYLNFKKIFSNLEQSVNNYLELEEEFEEKKKYLSEIYELIDEINIDPYIFLTEHNECNIYKISENEKLELQTYMSKIEKVLLKYQTYLKETCKECLFYPYLLVQGEAGIGKSHLLAHLSKKLRDENHIIYLFLGQFFTKNEDPWHQILNDLEVTNSVDNFLRSISNKAKETKKRAFIIIDALNEGEGKRLWGNYFQSFINHIKKYSNIALIFSIRTPFEDVILPKNAIQDNNIVVFQHEGFSKEENYNPIVSFCDFYGLELPKLPILNPEFNNPLFLKLMCEYCVNKFKEFDQTISVAELFTNVLKTVNINLSKEDKFDFDKNINVVQKVIKGLVELMNDSEFNQLNYEESYTVVNNIAKEYVQKSNRFLEALIDENILIKNTGYKGEMIIYFSYERMGDYFLSEYLLEKYRNVDKRDLVTKLQSDEKVTRYFQKEDDLSYNRGLINELFIKLANEFNIELFEVFPQFKNNYNMIYSFINSLVWRKDGSISKHTKCYISDNVIPYDAFRNNFLDVLLIKMPQKNHPLNIWALHKLLKQCNLGKRDFLWTQYISINNEKVFEIINWLFSNYKKLDEETAEKYMIFLTWIFSATNNKLRDLGTKSLVKLFKTFPTKIIGLLKLFENNNDPYIVERLYASVLGATLRIDICEIHIEIANYIYEEIFDKEMVYPHILMRDYARQTIEYISLSKDISNINLEKIRPPYKSNWYKKEYSNLNIDDYIKSLKNKLDSHLHFSIDKIKNSMTTEYGRGTGAYGDFGRYVFGYAVRNWVKGFKSDQDLSNIALMRIFEMGYDAKLHGEFDMWVNRYDNFNNSIERISKKYQWIAYYEILAKLVDKFPDVQYSGLWDDYIRDIDPTLLLLEIDK” here?
**A.** The value was “not soluble”.

**Q.** With “MAHHHHHHMPGKRKRVQGDDNTESQASAVPQGDGQTRARPESHGDTNQPAATHIRVEEPRQPQWTLESRLEDVLLEGKERITNMRLNDFLRNYFDGRGVEEFNENVYMKYFLISPNEFIKDEVLLSTIKVSPPYQELKKEREEFYMLLEASNKLKKECIITLEQWSNFERKDTVTPLARAQINTAFSRVLREERWEAEERQRRERQEMGIDVSTRIKYAVLKGRVRVNKMKLNDFLTMELDGRGVGSANWNFLLRDFFICSTKYIYDVFLLLKIQASDRYNTMERAVRDEMDMEEDVNRLYKNGVDNLLKWLVAAAEVKANVHEVTKRFLDAAAEEAREPKKSSAPMKLEGCYESVYNASWHHFVEVPDGEGTVMEVREGEPPRSWTYKAVGDTLERNDGVEQSGAPRPRLMVLTSDKGWPYTWRRMDPLVAAM” as the sequence, how does the “soluble on expression in E. coli” value read?
**A.** The value was “not soluble”.
